The values below come from IntAct's records for PubMed 32296183.

Sequences and labels used below:
B1: Transmembrane protein 43 (Homo sapiens), Q9BTV4 (parent)
chain: MAANYSSTSTRREHVKVKTSSQPGFLERLSETSGGMFVGLMAFLLSFYLIFTNEGRALKTATSLAEGLSLVVSPDSIHSVAPENEGRLVHIIGALRTSKLLSDPNYGVHLPAVKLRRHVEMYQWVETEESREYTEDGQVKKETRYSYNTEWRSEIINSKNFDREIGHKNPSAMAVESFMATAPFVQIGRFFLSSGLIDKVDNFKSLSLSKLEDPHVDIIRRGDFFYHSENPKYPEVGDLRVSFSYAGLSGDDPDLGPAHVVTVIARQRGDQLVPFSTKSGDTLLLLHHGDFSAEEVFHRELRSNSMKTWGLRAAGWMAMFMGLNLMTRILYTLVDWFPVFRDLVNIGLKAFAFCVATSLTLLTVAAGWLFYRPLWALLIAGLALVPILVARTRVPAKKLE
B2: Very-long-chain enoyl-CoA reductase (Homo sapiens), Q9NZ01 (parent)
chain: MKHYEVEILDAKTREKLCFLDKVEPHATIAEIKNLFTKTHPQWYPARQSLRLDPKGKSLKDEDVLQKLPVGTTATLYFRDLGAQISWVTVFLTEYAGPLFIYLLFYFRVPFIYGHKYDFTSSRHTVVHLACICHSFHYIKRLLETLFVHRFSHGTMPLRNIFKNCTYYWGFAAWMAYYINHPLYTPPTYGAQQVKLALAIFVICQLGNFSIHMALRDLRPAGSKTRKIPYPTKNPFTWLFLLVSCPNYTYEVGSWIGFAIMTQCLPVALFSLVGFTQMTIWAKGKHRSYLKEFRDYPPLRMPIIPFLL
partner: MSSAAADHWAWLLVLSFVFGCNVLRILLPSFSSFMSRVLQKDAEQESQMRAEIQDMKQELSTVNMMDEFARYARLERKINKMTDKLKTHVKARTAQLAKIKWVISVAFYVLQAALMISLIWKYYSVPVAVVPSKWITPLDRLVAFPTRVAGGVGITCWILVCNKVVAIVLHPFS
B3: Golgi SNAP receptor complex member 2 (Homo sapiens), O14653 (parent)
chain: MDPLFQQTHKQVHEIQSCMGRLETADKQSVHIVENEIQASIDQIFSRLERLEILSSKEPPNKRQNARLRVDQLKYDVQHLQTALRNFQHRRHAREQQERQREELLSRTFTTNDSDTTIPMDESLQFNSSLQKVHNGMDDLILDGHNILDGLRTQRLTLKGTQKKILDIANMLGLSNTVMRLIEKRAFQDKYFMIGGMLLTCVVMFLVVQYLT
partner: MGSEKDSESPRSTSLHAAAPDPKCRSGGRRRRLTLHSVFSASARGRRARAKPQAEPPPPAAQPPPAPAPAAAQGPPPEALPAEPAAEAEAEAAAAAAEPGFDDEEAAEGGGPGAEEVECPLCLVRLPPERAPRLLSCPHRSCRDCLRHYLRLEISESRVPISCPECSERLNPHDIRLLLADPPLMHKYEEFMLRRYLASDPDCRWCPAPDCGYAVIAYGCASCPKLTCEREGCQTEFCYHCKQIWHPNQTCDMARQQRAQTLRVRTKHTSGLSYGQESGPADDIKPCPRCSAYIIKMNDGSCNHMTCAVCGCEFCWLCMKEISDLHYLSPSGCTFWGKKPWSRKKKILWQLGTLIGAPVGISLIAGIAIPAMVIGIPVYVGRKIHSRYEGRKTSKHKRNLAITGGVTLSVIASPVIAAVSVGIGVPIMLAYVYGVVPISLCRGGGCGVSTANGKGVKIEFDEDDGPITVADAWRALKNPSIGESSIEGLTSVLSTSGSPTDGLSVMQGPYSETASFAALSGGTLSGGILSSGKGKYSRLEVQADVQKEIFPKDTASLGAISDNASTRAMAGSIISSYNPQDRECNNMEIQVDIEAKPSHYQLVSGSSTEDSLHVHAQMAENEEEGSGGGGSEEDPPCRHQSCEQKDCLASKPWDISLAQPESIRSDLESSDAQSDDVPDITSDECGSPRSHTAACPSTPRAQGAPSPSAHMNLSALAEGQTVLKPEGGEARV
B4: Golgi SNAP receptor complex member 2 (Homo sapiens), O14653 (parent)
chain: B3 chain
partner: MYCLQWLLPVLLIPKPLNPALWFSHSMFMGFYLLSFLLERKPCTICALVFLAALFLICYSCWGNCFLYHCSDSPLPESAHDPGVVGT
B5: Golgi SNAP receptor complex member 2 (Homo sapiens), O14653 (parent)
chain: B3 chain
partner: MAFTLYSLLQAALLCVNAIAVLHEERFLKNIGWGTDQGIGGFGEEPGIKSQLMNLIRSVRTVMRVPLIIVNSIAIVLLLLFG
B6: Golgi SNAP receptor complex member 2 (Homo sapiens), O14653 (parent)
chain: B3 chain
partner: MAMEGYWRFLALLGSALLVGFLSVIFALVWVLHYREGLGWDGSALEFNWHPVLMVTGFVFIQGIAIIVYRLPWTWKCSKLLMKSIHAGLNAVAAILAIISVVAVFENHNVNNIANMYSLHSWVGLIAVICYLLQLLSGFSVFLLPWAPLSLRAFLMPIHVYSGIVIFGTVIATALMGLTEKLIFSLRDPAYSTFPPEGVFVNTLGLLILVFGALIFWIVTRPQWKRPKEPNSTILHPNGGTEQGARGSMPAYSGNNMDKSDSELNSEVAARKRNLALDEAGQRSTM
B7: Golgi SNAP receptor complex member 2 (Homo sapiens), O14653 (parent)
chain: B3 chain
partner: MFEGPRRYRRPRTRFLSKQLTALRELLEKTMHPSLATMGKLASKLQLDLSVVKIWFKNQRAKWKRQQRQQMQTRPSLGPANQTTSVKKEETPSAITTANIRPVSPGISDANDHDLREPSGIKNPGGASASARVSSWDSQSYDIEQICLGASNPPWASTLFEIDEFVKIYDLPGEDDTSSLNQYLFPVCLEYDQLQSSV
B8: Golgi SNAP receptor complex member 2 (Homo sapiens), O14653 (parent)
chain: B3 chain
partner: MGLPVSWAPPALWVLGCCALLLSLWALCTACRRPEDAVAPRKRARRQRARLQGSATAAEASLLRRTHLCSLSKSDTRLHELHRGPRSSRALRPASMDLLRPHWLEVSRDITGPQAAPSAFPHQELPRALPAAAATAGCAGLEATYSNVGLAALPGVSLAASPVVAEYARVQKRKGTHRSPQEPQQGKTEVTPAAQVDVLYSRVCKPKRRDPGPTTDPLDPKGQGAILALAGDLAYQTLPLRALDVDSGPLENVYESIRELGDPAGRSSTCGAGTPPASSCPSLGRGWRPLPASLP

Variants of B1 are the subject of one assay. The following applies: with ubp25_human USP25, Q9UHP3.
ubp25_human USP25, Q9UHP3, sequence (Q9UHP3 whole entry): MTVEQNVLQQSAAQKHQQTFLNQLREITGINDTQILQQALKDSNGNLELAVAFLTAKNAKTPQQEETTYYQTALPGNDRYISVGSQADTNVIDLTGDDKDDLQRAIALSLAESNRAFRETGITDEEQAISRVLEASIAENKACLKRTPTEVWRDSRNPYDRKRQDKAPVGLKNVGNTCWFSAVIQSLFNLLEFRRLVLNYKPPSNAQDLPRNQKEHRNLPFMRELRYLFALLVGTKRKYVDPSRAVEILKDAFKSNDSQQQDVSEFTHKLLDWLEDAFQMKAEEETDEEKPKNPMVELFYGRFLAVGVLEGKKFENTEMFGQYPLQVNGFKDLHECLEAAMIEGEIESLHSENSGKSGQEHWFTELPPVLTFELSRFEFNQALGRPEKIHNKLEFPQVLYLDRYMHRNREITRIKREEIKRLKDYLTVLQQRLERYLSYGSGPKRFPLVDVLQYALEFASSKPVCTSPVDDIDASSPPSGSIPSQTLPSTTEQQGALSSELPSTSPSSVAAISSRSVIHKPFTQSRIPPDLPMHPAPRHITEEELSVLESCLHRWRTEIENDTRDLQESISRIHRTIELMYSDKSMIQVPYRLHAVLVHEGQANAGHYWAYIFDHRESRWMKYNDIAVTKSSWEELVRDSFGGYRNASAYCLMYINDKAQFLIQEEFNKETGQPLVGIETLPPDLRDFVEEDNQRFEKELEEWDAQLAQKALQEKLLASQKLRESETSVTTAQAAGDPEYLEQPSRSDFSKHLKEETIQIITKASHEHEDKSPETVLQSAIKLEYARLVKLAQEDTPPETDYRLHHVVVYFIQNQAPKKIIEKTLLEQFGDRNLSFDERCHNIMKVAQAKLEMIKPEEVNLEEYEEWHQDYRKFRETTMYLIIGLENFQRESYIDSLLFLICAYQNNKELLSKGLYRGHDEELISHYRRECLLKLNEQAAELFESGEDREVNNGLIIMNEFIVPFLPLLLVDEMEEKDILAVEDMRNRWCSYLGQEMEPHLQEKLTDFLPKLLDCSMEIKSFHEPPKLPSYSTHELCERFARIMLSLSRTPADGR
Consider E85K, for which the “effect of a mutation on the interaction” value is “with no effect”.

The variants in the next assay derive from B1. The following applies: with ar13b_human ARL13B.
Turning to E85K, the “effect of a mutation on the interaction” value is on record as “disrupting interaction strength”.

Variants of B1 are the subject of the next assay. The conditions noted are these: with FGA.
Take E85K: the “effect of a mutation on the interaction” value was “with no effect”.

The variants in the next assay derive from B1. The conditions noted are these: with PCYT1B.
Regarding E85K, the “effect of a mutation on the interaction” value is on record as “with no effect”.

The next assay covers variants of B1. The following applies: with zch12_human ZCCHC12, Q6PEW1.
zch12_human ZCCHC12, Q6PEW1, sequence (Q6PEW1 whole entry): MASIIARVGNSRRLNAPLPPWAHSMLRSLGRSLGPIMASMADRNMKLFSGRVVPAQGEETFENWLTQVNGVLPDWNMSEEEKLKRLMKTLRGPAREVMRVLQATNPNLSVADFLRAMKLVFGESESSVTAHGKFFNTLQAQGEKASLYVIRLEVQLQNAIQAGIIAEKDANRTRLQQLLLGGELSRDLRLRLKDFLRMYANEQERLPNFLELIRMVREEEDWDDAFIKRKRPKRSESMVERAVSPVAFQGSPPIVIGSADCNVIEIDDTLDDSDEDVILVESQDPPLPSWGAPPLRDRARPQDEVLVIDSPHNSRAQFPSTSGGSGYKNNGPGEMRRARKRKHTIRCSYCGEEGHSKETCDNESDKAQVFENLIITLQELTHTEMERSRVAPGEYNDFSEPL
As to E85K, the “effect of a mutation on the interaction” value was “with no effect”.

In another assay the parent is B2. The following applies: with get1_human GET1, O00258.
As for P182L, the “effect of a mutation on the interaction” value is “disrupting interaction strength”.

Variants of B3 are the subject of the next assay. The following applies: with rn19b_human RNF19B.
Consider G144W, for which the “effect of a mutation on the interaction” value was “with no effect”.

The variants in the next assay derive from B4. The conditions noted are these: with blcap_human BLCAP.
For the variant G144W, the “effect of a mutation on the interaction” value is “with no effect”.

The variants in another assay derive from B5. The following applies: with ir3ip_human IER3IP1, Q9Y5U9.
As to G144W, the “effect of a mutation on the interaction” value is on record as “with no effect”.

Variants of B6 are the subject of a further assay. The following applies: with cybr1_human CYBRD1, Q53TN4.
For G144W, the “effect of a mutation on the interaction” value is “with no effect”.

In the next assay the parent is B7. The conditions noted are these: with leutx_human LEUTX.
On to G144W, for which the “effect of a mutation on the interaction” value is reported as “with no effect”.

Variants of B8 are the subject of another assay. The conditions noted are these: with lime1_human LIME1, Q9H400.
For the variant G144W, the “effect of a mutation on the interaction” value is “disrupting interaction strength”.
